From the nanobody polyreactivity screen of Harvey et al. (2022)

Assay: yeast display, Sf9 membrane polyspecificity reagent, FACS + sequencing; frameworks hold sequencing errors
How it was run: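 A nanobody's polyreactivity label depends on the gate it was sorted from. Yeast display cells were stained with 10% biotinylated, detergent-solubilized Sf9 membrane reagent for 1 hour at 4 °C, enriched on streptavidin microbeads and sorted by FACS. The low and high (top ~1%) gates were set on anti-HA fluorescence for expression and streptavidin fluorescence for reagent binding.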

Sequence	polyreactivity (PSR sort gate)
QVQLVESGGCLVQAGGSLRLSCAASGSIFPGYAMGWYRQATGKERELVAAISTSGGSTYADSVKGRFTISRDNAKNTVYLQMNSLKPEDTAVYYCAATYTYTSPVYYYLDGPWPYDYWGQGTQVTVSS	low polyreactivity
QVQLVESGGGLVQAGGSLRLSCAASGYIFWENAMGWYRQAPGKERELVAAITVSGGGTYYADSVKGRFTISRDNAKNTVYLQMNSLEPEDTAVYSCAADEDNPWLWFYYCGQGTQVTVSS	low polyreactivity
QVQLLESGGGFVQEGGSLRLICAASGLTFYYNAMGWYRQAPGTERELVAAISFSGGRTYYADSVKGRFTISRDNAQNTVYLQMNSLKPEDTAVYYCAARVPRYRKDSVWAYYYWGQGTQVTVSS	high polyreactivity
QVQLVESGGGLVQAGGSLRLSCAASGRIFHRYAMGWYRQAPGKERELVASISRGDSTNYADSVKGRFTISRDNAKNTVYLQMNSLKPEDTAVYYCAAVPRRSGHQRWGATYYYWGQGTQVTVSS	high polyreactivity
QVQLVESGGGLVQAGGSLRLSCAASGYIFKYYAMGWYRQAPGKERELVATINYSGGGTYYADSVKGRFTISRDNAKNTVYLQMNRLKPEDTAVYYCAAREKYISYSYYYWGQCTQVTVSS	high polyreactivity
QVQLVESGGGLVQAGGSLRLSCAASGRTFRGNAMGWYRQAPGKEREVVAAISWSGGNTYYADSVKGRFTISRDNAKNTVYLQMNSLKPEDTAVYYCAAGSYWSPYGQSFWPKYDYWGQGTQVTVSS	high polyreactivity
QVQLVESGGGLVQAGGSLRLSCAASGRTFGRNAMGWYRQATGKERELVAAISRSGASTYYADSVKGRFTISRDNAKNTVYLQMNSLKPEDTAVYYCAKDVWGSRYAYDYWGQGTQVTVSS	low polyreactivity
QVQLVESGGGLVQAGGRLRLRCAASGFILDTYAMGGYRQAAGNERELVAGITVRGGSTYYADSVKGRFTISRDNAKNTVYLQMNSLKPEDTAVYYCNAAQDRFGYRRSGYWYDYWGQGTQVTVSS	low polyreactivity
QVHLVESGGGLVQAGGSLRLSCAASGFIFSGYALGWKRQAPGKERELVAAITSSGDGTYYADSVKGRFTISRDNAKNTVYLQMNSLTPEDTAVYYCNAGRARYFWRTDRFDYWGQGTQVTVSS	high polyreactivity
QVQLVESGRGLVQAGGSLRLSCAASGSIFTHYAMVWYRQAPGKERELVATISNGDGSTYYADSVKGRFTISRDNAKNTVYLQMNSLKPEDTAVYYCNVDDFSQYADDSWGYEYWGQGTQVTVSS	low polyreactivity
QVQLVESGGGLVQAGGSLRLSCAAYEFIFARNGMGWSRQAPGKERELVAAITNSGSTYADSVKGRFTISRDNAKNTVYLQMNSLKPEDTAVYYCNKDPGNVSSYNGGGYWGQGTQVTVSS	low polyreactivity
QVQLVESGGGLVQAGGSLRLSCAASGFTFRHNGMGWYIQAPGKERELVATITWSGGRTSYADSVKGRFTISRDNAKNTVYLQMNSLKPEDTAVYYCAARFFSYSQYAYNYWGQGTQVTVSS	high polyreactivity
QVQLEESGGRLVQAGGSLRLSCAASGRIFNYYAMGWYRQAPGQERELVAAISNGGSTYYADSVKGRFTISRDNAKNTVYLQMNSLKPEDTAVYYGAAYQTYYARTELDYWGQGTLVTVSS	high polyreactivity
QVQLVESGGGLVQAGGSLRLSCASSGITFYVYAMGWYRQAPGKERELVASISWNGGRTYYADSVKGRFTISRDNAKNTVYLQMNSLKPEDTAVYYCAARAYSYWSGLDYWGQGTQVTVSS	high polyreactivity
QVQLVESGGGLVQAGGSLRLSCAASGRTFVYYAKGWYIQAPGKERELVATISSSDSTNYAYSVKGRFTISRDNAKNTVYLQMNSLKPEDTAVYYCAGGPKGGGYYDPFDYWGQGTQVNVSS	low polyreactivity
QVQLGESGGGLLQAGGSHSLICADSGSTIRPNAMGWYTQAPGKERELVATIRGGGTSTYYADSVKGRFTISRDNAKNTVYLQLNSLKPEDTAVYYCAARGFYTGSYPGYYYWGQGTQVTVSS	high polyreactivity
QVQVVESGGGFVQAGGSLRVSCAASGSTFRANAMGCYTQAPGKERELVAAISQSGGITYYADSVKGRFTISRDIAKNTVYLQMNSLKPEDTAVYYCAAKIALDNDYWGQGTQVTVSS	high polyreactivity
